# Measured values reported in the supplement of paper PMC12042874.
# ± gives the uncertainty stated by the source.
# Assay: amyloid nucleation score (Sup35N fusion, yeast selection) (log enrichment); library NNK3; higher = more nucleation; inactive = no reads after selection
# How it was run: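 The nucleation score is the DiMSum log enrichment of output over input reads, centred on the mode score of non-aggregating sequences. Only sequences with 100 or more input reads were scored, using Illumina sequencing of input and output plasmid inserts. Psi-negative yeast expressing Sup35N fused to peptides of 20 random codons were induced 24 hours with 100 μM copper sulfate and grown 7 days at 30°C on medium lacking adenine and uracil.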
row,Substance,amyloid nucleation score
1,WSPWHENWGLGMLQLKTSLW,inactive
2,WSSSW,inactive
3,WSSTRLPSMSPCGFIHQGYI,inactive
4,WSTPWMWVRFGRIDHCSLGV,inactive
5,WSVSTQFPCFMSGSIGYNMS,inactive
6,WSYIVLTVLTWVACCTFWFV,-0.436 ± 0.49
7,WTKSFSSNSTQVSQYYSFNL,inactive
8,WTLARFTSD,inactive
9,WTMSKLNGRCTSCPHLARLS,inactive
10,WTNIRFAF,inactive
11,WTRNTKLVEIIKMYYQNVNL,inactive
12,WVDGYFNLTENVPAVVGK,inactive
13,WVFVRMMVELINMTAAFAVS,inactive
14,WVHFYDTMGDM,inactive
15,WVHRIAS,inactive
16,WVIACVMRYVVFKNKVMIVR,inactive
17,WVIIIYRYLFRNISAKQSRL,inactive
18,WVKPSSFWGFERNTYDIYIG,-0.176 ± 0.62
19,WVNFRSPFLNGANA,-0.686 ± 0.68
20,WVNTGNQRLYRQTCCGTLVR,inactive
21,WVRRYV,inactive
22,WVTYWASRVFE,inactive
23,WVWRSNSPGAEKWTLLTKTL,inactive
24,WVYDSTIRHHH,inactive

row,Substance,amyloid nucleation score
1,WWADA,inactive
2,WWKSLLTRWRCLPPRK,-0.307 ± 0.62
3,WWSKRLKRLVNCGLR,inactive
4,WYGDNRGIMYVLGSRINWRY,1.34 ± 0.087
5,WYHGKWYLDLNYVVPVTQWK,inactive
6,WYHSQNVINCRQSVVTMKHN,inactive
7,WYRYSGGYNWP,0.396 ± 0.29
8,WYYCRLRACVRH,inactive
9,YAAEYYVVQVIG,inactive
10,YAAIPQIVINVLVGGTNASC,2.1 ± 0.069
11,YAATRW,inactive
12,YAFKVCS,inactive
13,YALIQIPKYRLGCRGWTMRG,0.172 ± 0.27
14,YALSVLVSRYQWSGWHYLYP,inactive
15,YAWGYSSWETRN,inactive
16,YCAYLLRSLWLGTAWEWWRQ,inactive
17,YCCAKL,inactive
18,YCFNLFRSARRGDGCAMIGC,inactive
19,YCGKCRAFCCQSCPIRVRLV,inactive
20,YCHILTLATVMKPTFERAPS,inactive
21,YCSVLELKSYLTLSLSKWKW,inactive
22,YCTWAYRVYSYSGCTMMIVL,inactive
23,YCYRYGWYHMNEDRIWDVRL,inactive
24,YDDVFFYSWVTFLRQLFDPL,inactive

row,Substance,amyloid nucleation score
1,YDGLSSAMGEHIRNNNCLLV,inactive
2,YDKVLRPMVSYYSR,inactive
3,YDMSDMNCRRIW,inactive
4,YDNVVYLIVGHYG,inactive
5,YEIFSVSLR,-0.221 ± 0.9
6,YEKPCEG,inactive
7,YETYKYLYGFVML,inactive
8,YFFSVLG,inactive
9,YFFVSWFRCMGPILSFTRVV,inactive
10,YFGSV,inactive
11,YFIMSFSLQNFMGSPLNRLG,inactive
12,YFIRVILPFQLTLVVIWYKF,inactive
13,YFLDV,inactive
14,YFLGRVRK,inactive
15,YFLRREQLYNLRKGK,inactive
16,YFLYLFRSVQCMLCHALNFN,0.586 ± 0.15
17,YFNLSRIMLNELMCLVIIRQ,inactive
18,YFPGGTLDY,inactive
19,YFSRMVKVRSNI,inactive
20,YFWEASGFHFIRLVTTASTQ,inactive
21,YFYSHRYI,inactive
22,YGCKANSPLL,inactive
23,YGCRINLIDRYALKYCVTED,inactive
24,YGGFLKFSRYGIGRYIHLQL,inactive

row,Substance,amyloid nucleation score
1,YGKQVLWN,inactive
2,YGLFGCLTSVWACRGCYGVV,inactive
3,YGLSFHDLYGCCLRLGIGMD,1.63 ± 0.081
4,YGQGSGGIGRRVAGQDCNLI,inactive
5,YGRLCDALKGSWYCSIYHGS,1.79 ± 0.074
6,YGSIIV,inactive
7,YGSKWTLKVFWIMMCFDELP,inactive
8,YGYVLTSTVGVILVYWSYSC,inactive
9,YHCVRLFRVPMTISRGDAQK,-0.271 ± 0.59
10,YHLLFIVKAYIGVILNFLRS,inactive
11,YIARCVVTSLVLNKTCMRIY,inactive
12,YICTNNLTYNSMMQIFSKIM,0.394 ± 0.33
13,YICVMWMYSCKLSLPMWHPR,inactive
14,YIEILE,inactive
15,YIETISPFLCGCYSIFSPMI,2.8 ± 0.084
16,YIEWLDFR,inactive
17,YIFDMSTGQDSMVY,inactive
18,YIFQICRFGIYYVRSVYTTY,inactive
19,YIGFGGDCSVSAFVTCQLGF,inactive
20,YIINARPYVVVTDGLKDETA,inactive
21,YINHSSSTA,inactive
22,YINLFGKWA,1.53 ± 0.1
23,YINLVFQNCAVDGRSSKGYW,2.67 ± 0.081
24,YIPVSTFM,-0.135 ± 0.6

row,Substance,amyloid nucleation score
1,YISEWSLSP,0.909 ± 0.13
2,YISFFGGFANNGYCWWICAS,1.81 ± 0.069
3,YITVRR,-0.297 ± 1.1
4,YIVNLGKFKCQNLMRSCRLK,1.07 ± 0.12
5,YKDRR,inactive
6,YKFIRFFSSMT,inactive
7,YKFLLFFFYSISAFGNDSCD,inactive
8,YKIRFSLYVEHSVVLYVQY,inactive
9,YKLKLIKEFCIGIRC,inactive
10,YKSNLLSYGALLISDFVLVR,-0.108 ± 0.63
11,YKSSNRSFFGIMANQPRLGC,inactive
12,YLASEVYRV,inactive
13,YLCLWCVEQLMYCRPRRLEE,inactive
14,YLGCSINLGTEDIIYAESEH,inactive
15,YLGFFTAYA,inactive
16,YLIDVGL,inactive
17,YLLFMYFLLSSCCSLPALPM,1.4 ± 0.12
18,YLNISILFNCVWDKVFFRYH,inactive
19,YLNRLCLNTNISRAVRCY,inactive
20,YLNSDRSYEMDTFRFGYLLY,inactive
21,YLRDF,inactive
22,YLRGY,inactive
23,YLSSIW,inactive
24,YLTNNLFRFLEYR,inactive

row,Substance,amyloid nucleation score
1,YLTVCRGRNTEGYGWEVNS,inactive
2,YLVGCWNYESKN,0.234 ± 0.25
3,YLVWVFPEWPC,1.39 ± 0.13
4,YLYLWSFCMSMVGFSIYRES,inactive
5,YMAVKRSWSNSMTMIHLNSV,inactive
6,YMESVARNSLRVSDCNAK,0.7 ± 0.14
7,YMIDPYKEEVLPP,inactive
8,YMLCC,inactive
9,YMLMGMVLRDRDRT,1.69 ± 0.088
10,YMRDCYSNSGWNIYRSKRLS,inactive
11,YMSFIYGSKR,1.78 ± 0.07
12,YMSRKPV,inactive
13,YNCFTHSPWRKH,inactive
14,YNEHLQLAVWRYALTVGKVW,inactive
15,YNMFACGVCTLFKVGKANKF,2.96 ± 0.074
16,YNNCYRCEN,inactive
17,YNRLNRL,inactive
18,YNSRDDSIKFFFVRSCILTY,inactive
19,YNSSYFYMMCPFLSSFSPFS,2.81 ± 0.067
20,YNVTFQSPVTSWDNHLIMA,inactive
21,YPHLMK,1.54 ± 0.12
22,YPNMWLDEYRMVFAYYLPCG,inactive
23,YPWGEGNGYTCGV,inactive
24,YQFFDASLIAR,inactive

row,Substance,amyloid nucleation score
1,YQIDQSLCNWCYLGGSWFIA,2.39 ± 0.072
2,YQSGTLWCQCIWFKMRWRVH,inactive
3,YQVVVGNFCLLHSVCI,0.124 ± 0.38
4,YRDTICPYETAREDMNYLLG,inactive
5,YRESDKVTFWLYLSRVDDLD,2.06 ± 0.083
6,YRFFVKYMLLIYLINFNIFL,0.057 ± 0.6
7,YRFTRKDSPSSKVKMISNSW,inactive
8,YRHICKYCFGQPVGHH,-1.1 ± 1.9
9,YRNMFQPRRNEAARQQLSST,inactive
10,YRPFWSA,inactive
11,YRRYWLSGRSFRADFIDNKT,inactive
12,YRSFSSKDVSKL,inactive
13,YRTARVSG,inactive
14,YRTDDERCDMTTVLYSYMEY,inactive
15,YRVSEELTLLY,inactive
16,YRWYQINSGSYLYLASRWCW,inactive
17,YRYMVRITCGCFHAVNDT,1.19 ± 0.14
18,YRYYCWNCCELGIDGTMWVA,-0.526 ± 0.45
19,YSALNSYSWYVTPFYILYWF,2.56 ± 0.084
20,YSAVSTSVMCAE,inactive
